Values of other authors in publication PMC13507575.

Biological target: IL-1β (Homo sapiens) (UniProt P01584)

Kd: 4.1 nM
Substance: canakinumab
